Results published in patent US20220002389A1 (IMMUNO BIOLOGICAL LABORATORIES, published 2022).

B1: Bcell-1C10 (1C10 antibody of B cell origin) (antibody, human IgG1, kappa, V domains shown)
VH: EVQLVESGGGVVQPGRSLRVSCVASGFMFSNYAMHWVRQTAGKGLEWVAIISNDGSDKYYADSVQGRFTVSRDNSQNTLFLQMSGLRPEDSGLYYCARDLDQTIPDLTAPAFEVWGQGTMVTVSS
VL: DIVMTQSPLSLAVTPGEPASISCRSSQSLLHSDGNNYLDWYLQKPGQSPQLLIYLTSNRASGVPDRFSGSGSGTDFTLKISRVEAEDVGVYFCMQSLQTWTFGQGTKVEIKR
B2: CHO-1C10 (1C10 antibody produced in ExpiCHO-S cells) (antibody, human IgG1, kappa, V domains shown)
VH: B1 VH
VL: B1 VL
modifications: about 70.3% core fucose-added N-glycan

Target: HIV-1 BaL strain envelope protein (gp120) on BaL-infected CEM.NKR-CCR5 (NKR24) cells (HIV-1 BaL strain)
Assay: cell-based or functional assay

| Binder | IC50 (50% inhibitory concentration) of infection of TZM-bl cells by BaL virus, luciferase RLU; 'Dose at Y = 50' [µg/mL] |
| --- | --- |
| B1 | 0.097 |
| B2 | 0.0781 |
